PMC4900146 (Biochemistry, 2016)

Molecular target: calmodulin (full-length wild-type CaM) (human, UniProt P0DP23 1-149)
Assay: circular dichroism

B1: pCaN, peptide encompassing the CaM-binding domain of calcineurin A (residues 391-414) (peptide)
peptide: not shown
B1: binds.
